Residue numbers refer to the chain shown, from its start.
B1: SR16983-R3-P5-A06 (VHH)
VHH: QLQLVESGGGLVQAGGSLRLSCVASGTTFTIEDIGWYRLAPGKQRELVAIISGGNTNYADSVKGRFTISRDNAKNTVYLQMNSLKPEDTAVYYCNGRTKATVKWGRGTQVTVSS
B2: SR16983-R2-P5-D01 (VHH)
VHH: B1 VHH with A73T
B3: SR16983-R2-P2-C04 (VHH)
VHH: QLQLVESGGGLVQAGGSLRLSCAASRTTFRINGVDWYRQVPGKQRELVATASSDGPTNYAESVKGRFTISRDNAKNTVYLQMNSLKPEDTAVYYCRIVLPSRIIWGQGTQVTVSS
B4: SR16983-R2-P3-E05 (VHH)
VHH: EVQLVESGGGLVQAGGSLRLSCAASGLTASTYVMAWFRQAPGKERDFVSLIDWRGEPTYANSVKGRFTISRDNGKNTVFLQMNSLRPEDTALYYCAVRASPGYVASLYPYWGRGTQVTVSS
B5: SR16983-R3-P2-D01 (VHH)
VHH: EVQLVESGGGLVQAGGSLRLSCAASGFTFSTKWMYWVRQGPGKGLEWVSTIDASGGSTYYADSVKGRFTISRDNTEKKVYLQMNSLESADTAVYYCARSAGGQFRGRGTQVTVSS
B6: SR16983-R3-P5-C09 (VHH)
VHH: QLQLVESGGGLVQPGGSLRLSCAASGFTFSTKWMYWVRQGPGKGLERVAAIDASGGSTYYADSVKGRFTISRDNSKNTLYLQMNSLESADTAVYYCARSEGGQFRGRGTQVTVSS
B7: SR16983-R3-P3-H05 (VHH)
VHH: B6 VHH with L2V, G16R, S54G, K76E, L79V, Q103L, S115A
B8: SR16983-R2-P4-E06 (VHH)
VHH: QLQLVESGGDLVQAGGSLRLSCAASGFTLDDYAIGWFRQAPGKEREGVSCIASSDGSTYYADSVKGRFTISTDNAKNTVYLQMNSLKPEDTAVYYCARGGLLLPKPELFDSWGQGTQVTVSS
B9: SR16983-R3-P5-F04 (VHH)
VHH: B8 VHH with D10G, D110E, S111Y
B10: SR16983-R3-P3-E02 (VHH)
VHH: QLQLVESGGGLVQAGGSLRLSCVLSGNTFGRNVITWYRQPPGKQREFIAMITSSGSTRYADSVKGRFTMSRDTAKNTAFLQMSSLKVEDTAVYYCWTAIAGQGEYWGQGTQVTVSS
B11: SR16983-R4-P1-A05 (VHH)
VHH: B10 VHH with Q1E, L2V, G16E, N27S, S53T, S56N, S84N, V87L
B12: SR16983-R2P1C08 (VHH)
VHH: QVQLVESGGGLVQPGGSLRLSCAASGRTFSNYAMGWFRQAPGKERRFVAGISRDDTSTSYADSVKGRFTILRDRSKNTVDLQMNSLKPEDTAIYYCAAARGIYGEISRYTGDYDSWGQGTQVTVSS
B13: SR16983-R3-P2-F07 (VHH)
VHH: QLQLVESGGGLVQAGGSLRLSCAASGTTFDMNSMGWYRQAPGFKRDLVATISIGGDTNYADSVKGRFTISRDNAKNTVYMQMNSLKPEDTAVYYCNAERIWPNRRSFWGQGTQVTVSS
B14: SR16983-R2-P2-D01 (VHH)
VHH: QLQLVESGGGLVQAGGSLRLSCVASGRTFSTYAMGWFRQAPGKEREFVGAIRWDGGSTNYANSVKGRFTISRDNAKNTVYLQVNSLKPEDTAVYYCAARASINYNYANWPYWGRGTQVTVSS
B15: SR16983-R2-P5-A12 (VHH)
VHH: QVQLVESGGGLVEAGGSLRLSCAASGRTFSSGALGWFRQAPGKEREFVATIRWSDERKQYSEFVKGRFTISRDSAKNTVYLQMNNLQPEDTAVYYCRSTVGNVLYWGQGTQVTVSS
B16: SR16983-R2-P4-E03 (VHH)
VHH: B15 VHH with E13Q
B17: SR16983-R3-P3-A08 (VHH)
VHH: EVQLVESGGGLVQAGGSLRLSCAASGRTFVGTYVMGWFRQAPGKAREFVAASSRSTGNTVYLDSVKGRFTVSRDDAKNTLYLQMNSLKPEDTAVYYCAARASINYNAANWPYWGQGTQVTVSS
B18: SR16983-R4-P1-C12 (VHH)
VHH: QLQLVESGGGLVQAGGSLRLSCAASGSTFSINVFAWYRQGSGEQRELVAFIGRSGTARYGDSVKGRFSISRDNAKKTVYLQMDSLRPEDTAVYYCNLGDYWGQGTQVTVSS
B19: SR16983-R2-P2-F02 (VHH)
VHH: QLQLVESGGGLVQAGGSLRLSCAASGTTFSFVYMGWYRQAPGNQRDLVARISSDGSTNYADSVKGRFTISRDNAKNTVYLQMNSLRPEDTARYYCFYNGHLNKWGQGTQVTVSS
B20: SR16983-R2-P2-F07 (VHH)
VHH: B19 VHH with T27S, V32N, D54G, S56I, R71G, N76D, R86K, H100Y
B21: SR16983-R3-P2-G01 (VHH)
VHH: B19 VHH with T27S, V32N, D54G, S56I, R71G, R86K, H100Y, Q106R
B22: SR16983-R2-P2-H04 (VHH)
VHH: B19 VHH with L2V, Y37F, R71G, R86K, Y94F, G99A
B23: SR16983-R3P2D02 (VHH)
VHH: QLQLVESGGGLVQPGGSLRLSCAASGFTLDGYAIGWFRQAPGKEREGVSSIATSDGSTYYADSVKGRFTISGDDAKNTVYLHMNSLKPEDTAVYYCARGGSLVLRPKYYDYWGQGTQVTVSS
B24: SR16983-R2-P3-B05 (VHH)
VHH: QLQLVESGGGLVQPGGSLRLSCAASGRTVGSYVMGWFRQAPGKEREFLAANSRSTGNTVYADSVKGRFTISRDDAKNTLYLQMNSLKPEDTAVYYCATRASINYNYANWPYWGQGTQVTVSS
B25: SR16983-R2-P4-D07 (VHH)
VHH: B24 VHH with L2V, P14A, V29I, L48V, A49V, N51F, N57H, T58I, V59S, T98A
B26: SR16983-R3-P5-F03 (VHH)
VHH: B24 VHH with L2V, P14A, S31T, V33A, M34I, L48V, N51F, A61P, T98A
B27: SR16983-R3-P3-H10 (VHH)
VHH: QVQLVESGGGLVQAGDSLRLSCAASTRTVGTYVMGWFRQAPGKERELVAASSRSTGNTVYPDSVKGRFTVSRDDAKNALYLQMNSLKPEDTAIYYCAARASINYNYANWPYWGQGTQVTVSS
B28: SR16983-R3P2D06 (VHH)
VHH: B24 VHH with F47L, N51S, T98A
B29: SR16983-R4-P1-C05 (VHH)
VHH: B24 VHH with P14A, V29F, E46A, L48V, A49G, N51A, N57T, A61L, T98A
B30: SR16983-R3-P3-C10 (VHH)
VHH: B24 VHH with P14A, V33A, N51F, N57P, T98A
B31: SR16983-R3-P4-E06 (VHH)
VHH: B24 VHH with P14A, V33A, M34V, G35A, F47L, N51S, S71A, T98A
B32: SR16983-R3-P5-H06 (VHH)
VHH: B24 VHH with P14A, V29F, S31T, M34I, L48V, N51F, A61P, L79V, T98A
B33: SR16983-R3-P3-E04 (VHH)
VHH: B24 VHH with L2V, P14A, V29F, L48V, N51A, A61P, T98A
B34: SR16983-R3P2H10 (VHH)
VHH: B6 VHH with S54G, K76E, L79V, Q103L, S115A

These binders were tested against T1, human APC-PPACK (active site-blocked APC) (human, UniProt P04070 43-461, active site bound by the tripeptide inhibitor Phe-Pro-Arg-chloromethylketone (PPACK)) (assay: ELISA).
T1 construct: Bought (Haematologic Technologies)
T1 sequence (P04070 other isoform, or with tags, fused parts or gaps): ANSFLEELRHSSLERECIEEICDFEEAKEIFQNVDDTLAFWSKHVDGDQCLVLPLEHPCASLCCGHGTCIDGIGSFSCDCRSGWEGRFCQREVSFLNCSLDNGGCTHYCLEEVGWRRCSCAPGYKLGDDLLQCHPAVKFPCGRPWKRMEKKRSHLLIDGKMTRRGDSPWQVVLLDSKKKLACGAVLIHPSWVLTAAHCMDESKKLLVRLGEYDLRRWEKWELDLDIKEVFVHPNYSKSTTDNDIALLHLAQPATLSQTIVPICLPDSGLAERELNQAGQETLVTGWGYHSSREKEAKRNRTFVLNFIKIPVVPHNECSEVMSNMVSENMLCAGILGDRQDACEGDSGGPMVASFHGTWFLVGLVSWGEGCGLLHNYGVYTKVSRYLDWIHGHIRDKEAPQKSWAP

Row | binding result | Binder
1 | binds | B1
2 | binds | B2
3 | binds | B3
4 | binds | B4
5 | binds | B5
6 | binds | B6
7 | binds | B7
8 | binds | B8
9 | binds | B9
10 | binds | B10
11 | binds | B11
12 | binds | B12
13 | binds | B13
14 | binds | B14
15 | binds | B15
16 | binds | B16
17 | binds | B17

Row | binding result | Binder
18 | binds | B18
19 | binds | B19
20 | binds | B20
21 | binds | B21
22 | binds | B22
23 | binds | B23
24 | binds | B24
25 | binds | B25
26 | binds | B26
27 | binds | B27
28 | binds | B28
29 | binds | B29
30 | binds | B30
31 | binds | B31
32 | binds | B32
33 | binds | B33

Each binder was assayed against T2, human protein C (PC) zymogen (human, UniProt P04070 43-197; P04070 200-461) (assay: ELISA screen, PC-coated wells, OD450, n=2).
T2 construct: Bought
T2 sequence (P04070 43-197, chain 1 of 2): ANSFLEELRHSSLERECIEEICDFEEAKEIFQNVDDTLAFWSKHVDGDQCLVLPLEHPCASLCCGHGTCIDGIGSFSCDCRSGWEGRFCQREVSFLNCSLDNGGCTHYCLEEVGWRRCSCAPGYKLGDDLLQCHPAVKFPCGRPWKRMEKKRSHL
T2 sequence (P04070 200-461, chain 2 of 2): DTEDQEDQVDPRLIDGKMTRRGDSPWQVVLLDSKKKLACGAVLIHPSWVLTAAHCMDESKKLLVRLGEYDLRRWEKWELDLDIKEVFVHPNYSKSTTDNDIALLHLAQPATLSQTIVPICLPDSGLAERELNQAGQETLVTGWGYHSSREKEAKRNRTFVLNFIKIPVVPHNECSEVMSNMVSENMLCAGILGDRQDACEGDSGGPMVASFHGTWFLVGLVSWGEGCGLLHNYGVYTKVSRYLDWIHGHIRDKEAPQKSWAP

Row | binding result | Binder
34 | no binding | B1
35 | no binding | B3
36 | no binding | B5
37 | no binding | B6
38 | no binding | B7
39 | no binding | B34
40 | no binding | B8
41 | no binding | B9
42 | no binding | B11
43 | no binding | B12
44 | no binding | B13
45 | no binding | B15
46 | no binding | B16
47 | no binding | B17
48 | no binding | B19
49 | no binding | B20
50 | no binding | B21
51 | no binding | B22
52 | no binding | B24
53 | no binding | B25
54 | no binding | B26
55 | no binding | B29
56 | no binding | B31
57 | no binding | B33

The binders below were run against T2, human protein C (PC) zymogen (assay: ELISA screen, PC-coated wells, OD450, n=2 [Continued]).

Row | binding result | Binder
58 | no binding | B2
59 | no binding | B4
60 | no binding | B10
61 | no binding | B14
62 | no binding | B18
63 | no binding | B23
64 | no binding | B27
65 | no binding | B28
66 | no binding | B30
67 | no binding | B32

Source: patent US20250163183A1 (COAGULANT THERAPEUTICS, published 2025)
